This data set in a line: yeast display, Sf9 membrane polyspecificity reagent, FACS + sequencing; frameworks hold sequencing errors. Summed up:
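After 36–48 hours of galactose induction, yeast (Saccharomyces cerevisiae BJ5465) displaying a synthetic nanobody library were stained at 4 °C for 1 hour with 10% biotinylated, detergent-solubilized Sf9 membrane reagent. Streptavidin microbeads enriched the stained cells before FACS sorting into low and high (top ~1%) gates on anti-HA and streptavidin fluorescence. Each clone's polyreactivity label reflects its gate of origin.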
In the case of “QVQLVESGGGLVQAGGSLRLSCAASGFTLWLNAMGWYRQAPGKERELVAAITTSDDGTYYADSVKGRFTISRDNAKNSVYLQMNSLKPEDTAVYYCAADYYSVLYDYWGQGTQVTVSS”, the “polyreactivity (PSR sort gate)” value was “low polyreactivity”.

Take “QVQLVESGGGLVQAGGSLRLTCAACGRIFNKYAMVWYIQAPGKERELVAAINGGGSTNYADSVKGRFTISRDNAKNTDYLQMNSLKAEDTAVYYCSTTPDGEGGYWGQGTQVTVSS”: the “polyreactivity (PSR sort gate)” value is listed as “low polyreactivity”.

Take “QVQLVESGGGLVQAGGSLRLSCAASGSIFDSYAMGWSRQAPGKERELVAAITWSGGITFYADSVKGRFTISRDNAKNTVYLQMNSLKPEDTAVYYCATARSYVGVGGTFVGLYDYWGQCTQVTVSS”: the “polyreactivity (PSR sort gate)” value is on record as “low polyreactivity”.

Take “QVQLVESGGGLVQAGGSLRLSCAASGSTFVRYDMGWYRQAPGKERELVADISWSGVSTYADSVKGRFTISRDNAKNTVYLQMNSLIAEDTAVYYCAKDSDLYQRGGYYWGQGTQVTVSS”: the “polyreactivity (PSR sort gate)” value is on record as “low polyreactivity”.

Consider “QVQLVESGGGLVQAGGSLRLSCAASGRTFRFYVMGWYRQAPGKERELVAAISRGGGSTYYADSVKGRFTISRDNAKNTVYLQMNSLKPEDTAVYYCAAKPYKTRSSYWGDYYWGQGTQVTVSS”, for which the “polyreactivity (PSR sort gate)” value was “high polyreactivity”.

Consider “QVQLVESGGGLVQAGGSLRLSCAPCGFTFRRNAMGWYRQAPGKERELVAAINWSGGSTYYADSVKGRFTLSRDNAKNNVYLQMNSLKPEDTAVYYCNRRGQYTFWPIHEYWGQGTQVTVSS”, for which the “polyreactivity (PSR sort gate)” value is listed as “high polyreactivity”.

With “QVQLVESGGGLVQAGGSLRLSCAASGIIFAANAMGWYRQAPGKERELVAAISKNGGITYYADSVKGRFTISRDNAKNTVYLQMNSLKPEDTAVYYCAAKLSRRYYYWGQGTQVTVSS”, the “polyreactivity (PSR sort gate)” value is “high polyreactivity”.

As to “QVQLVESGGGLVQAGGSLRLSCAASGSTFYNNAMGWYRQAPGKERELVAAISNVSTYYADSVKGRFTISRDNAKNTVYLQMNSLKPEDTAVYYCAARGLLWYYSWRYYYWGQGTQVTVSS”, the “polyreactivity (PSR sort gate)” value is “low polyreactivity”.

Consider “QVQLVESGGGLVQAGGSLRLSCAASGSIFGVYTMGWYRQAPGKERELVAAITSAGSTYADSVKGRFTISRDKAKNTVYLQMNSLKPEDTAVYYCNAQSVLLSLRVELREPHEYWGQGTQVTVSS”, for which the “polyreactivity (PSR sort gate)” value is given as “low polyreactivity”.

As for “QVQLVESGGGLVQAGGSLRLSCAASGFTFYGYAMGWYRQAPGKDRELVARITVRGSTTYYADSVKGRFTISRDNAKNTVYLQMNSLKPEDTAFYYCNASWVYSRFRPLDYDLDYWGQGTQVTVSS”, the “polyreactivity (PSR sort gate)” value is recorded as “low polyreactivity”.

In the case of “QVQLVESGGGLVQAGGSLRLSCAASGLIFRRYVLGWYRQAPGKEWELVAAISATGSRTYYADSVKGRFTISRDNAKNTVYLQRNSLKPEDNAVYYCAAYRGPRIYRYDYWGQVTQVTVSS”, the “polyreactivity (PSR sort gate)” value was “high polyreactivity”.

For “QVQLVESGGGLVQAGGRLRLSCAASGLTFLPNAMGWYRQAPGKERELVAAISWSDVRTYYADSVKGRFTISRDNAKNTVYLQMNSLKPEDTAVYYCAAEIYDLPEGDYWGQGTQVTVSS”, the “polyreactivity (PSR sort gate)” value is “high polyreactivity”.

Regarding “QVQLVESGGGLVQAGGSLRLSCAASGRIFSRNAMGRYSQAPGKERELVAAIRWRSGSTYYADSVKGRFTISRDNAKNTVYLQMNSLNPEDTAVYYCAASGPGYSRYTQYDSWGQGTQVTESS”, the “polyreactivity (PSR sort gate)” value is listed as “high polyreactivity”.

Turning to “QVQLVESGGGLVQAGGSLRLSCAASGRIFYSNTMGWYRQAPGKERELVARIDTGGGSTYADSVKGRFTISRDNAKNTVYLQMNSLKPEDTAVYYCAALKFEAWAGEDYWGQGTQVTVSS”, the “polyreactivity (PSR sort gate)” value is reported as “low polyreactivity”.

On to “QVQLVESGGRLVQAGGRLRLSCAASGRTILLYAMGRYRQAPGKESELVPAIRSSTVSTYYADSVKGRFTISRDNAKNTVYLQMYSLKPEDTAVYYCAASRPKYGPSGVRYNYWGQGTQVTVSS”, for which the “polyreactivity (PSR sort gate)” value is “high polyreactivity”.

Turning to “QVQLVESGVGLVQAGGSLRLSCAASGSIFDKNAMGWDRPAPGKERELVAAISRSGGSTYYADSVKGRFTISRDNAKNTVYLQMNSLKPEDTAVYYCNKYTNGRNFDYWGQGTQVTVSS”, the “polyreactivity (PSR sort gate)” value was “high polyreactivity”.

Values taken from the nanobody polyreactivity screen of Harvey et al. (2022).
